Laboratory results published in article PMC6485186.

Molecular target: TNF-alpha (mouse) (Mus musculus, UniProt P06804 80-235)
Experiment: nitrocellulose filter binding with qPCR

TNF-alpha (mouse), sequence (P06804 80-235): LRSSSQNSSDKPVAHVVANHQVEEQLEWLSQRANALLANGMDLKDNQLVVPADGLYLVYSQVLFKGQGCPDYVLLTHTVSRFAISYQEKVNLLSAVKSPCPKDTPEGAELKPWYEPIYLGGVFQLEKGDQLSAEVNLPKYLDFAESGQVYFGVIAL

GCGCCACTACAGGGGAGCTGCCATTCGAATAGGTGGGCCGC (ssDNA) [aptTNF-alpha]
binding result: binds
